Test results published in patent publication US20100297664A1 (NATIONAL INSTITUTE OF ADVANCE INDUSTRIAL SCIENCE AND …, published 2010).

What was measured:
Assay in all cases: peptide microarray (RepliTope)
SEQ ID NO 76 = target: T1, SEQ ID NO 76 (human)
T1 construct: 15-mer of the human mortalin 348-450 array; by its order peptide #55 (inferred)
T1 peptide: LFGRAPSKAVNPDEA
Method: (§1) Eighty nine (89) peptides (15 amino acids each) which were designed to each be shifted by one amino acid on the amino acid sequence ranging from position 348 to position 450 of human mortalin containing the amino acid sequence (SEQ ID NO: 56) ranging from the above position 381 to position 410, were chemically synthesized. Epitope mapping (RepliTope mapping) analysis was then carried out on them using a Tecon HS400 microarray analysis station (FIG. 14).
(§2) Background measurement was carried out for each microarray using an Axon Genepix scanner, so that it was confirmed that no signals were detected. All microarrays were treated using a blocking buffer (Pierce, Puperblock TBS #37536).
(§3) As anti-mortalin monoclonal antibodies having the cellular internalizing function, two antibodies 37-6 and 38-4 were prepared. Antibody 53-3 that is an anti-mortalin antibody not having the cellular internalizing function was prepared for comparison. Each antibody (30 μg/mL, 200 μL) diluted with a blocking buffer was applied to microarrays and then incubated. After the microarrays were washed 3 instances with a TBS buffer containing 0.1% T20, a fluorescence-labeled secondary antibody (1 μg/mL, anti-mouse-Dylight 649; Pierce #35515) was applied thereto and then incubated. Similarly, a control array subjected to incubation with only the secondary antibody was also treated so as to confirm no detected signals.

SEQ ID NO 69 = target: T2, SEQ ID NO 69 (human)
T2 construct: 15-mer of the human mortalin 348-450 array; by its order peptide #48 (inferred)
T2 peptide: VQQTVQDLFGRAPSK
Method: as §1, §2, §3

SEQ ID NO 82 = target: T3, SEQ ID NO 82 (human)
T3 construct: 15-mer of the human mortalin 348-450 array
T3 peptide: RMPKVQQTVQDLFGR
Method: as §1, §2, §3

SEQ ID NO 73 = target: T4, SEQ ID NO 73 (human)
T4 construct: 15-mer of the human mortalin 348-450 array; by its order peptide #52 (inferred)
T4 peptide: VQDLFGRAPSKAVNP
Method: as §1, §2, §3

SEQ ID NO 72 = target: T5, SEQ ID NO 72 (human)
T5 construct: 15-mer of the human mortalin 348-450 array; by its order peptide #51 (inferred)
T5 peptide: TVQDLFGRAPSKAVN
Method: as §1, §2, §3

SEQ ID NO 74 = target: T6, SEQ ID NO 74 (human)
T6 construct: 15-mer of the human mortalin 348-450 array; by its order peptide #53 (inferred)
T6 peptide: QDLFGRAPSKAVNPD
Method: as §1, §2, §3

SEQ ID NO 77 = target: T7, SEQ ID NO 77 (human)
T7 construct: 15-mer of the human mortalin 348-450 array
T7 peptide: KAMQDAEVSKSDIGE
Method: as §1, §2, §3

SEQ ID NO 71 = target: T8, SEQ ID NO 71 (human)
T8 construct: 15-mer of the human mortalin 348-450 array; by its order peptide #50 (inferred)
T8 peptide: QTVQDLFGRAPSKAV
Method: as §1, §2, §3

SEQ ID NO 75 = target: T9, SEQ ID NO 75 (human)
T9 construct: 15-mer of the human mortalin 348-450 array; by its order peptide #54 (inferred)
T9 peptide: DLFGRAPSKAVNPDE
Method: as §1, §2, §3

SEQ ID NO 67 = target: T10, SEQ ID NO 67 (human)
T10 construct: 15-mer of the human mortalin 348-450 array
T10 peptide: PKVQQTVQDLFGRAP
Method: as §1, §2, §3

SEQ ID NO 80 = target: T11, SEQ ID NO 80 (human)
T11 construct: 15-mer of the human mortalin 348-450 array
T11 peptide: GMTRMPKVQQTVQDL
Method: as §1, §2, §3

SEQ ID NO 70 = target: T12, SEQ ID NO 70 (human)
T12 construct: 15-mer of the human mortalin 348-450 array; by its order peptide #49 (inferred)
T12 peptide: QQTVQDLFGRAPSKA
Method: as §1, §2, §3

SEQ ID NO 68 = target: T13, SEQ ID NO 68 (human)
T13 construct: 15-mer of the human mortalin 348-450 array; by its order peptide #47 (inferred)
T13 peptide: KVQQTVQDLFGRAPS
Method: as §1, §2, §3

SEQ ID NO 78 = target: T14, SEQ ID NO 78 (human)
T14 construct: 15-mer of the human mortalin 348-450 array
T14 peptide: GEVILVGGMTRMPKV
Method: as §1, §2, §3

SEQ ID NO 79 = target: T15, SEQ ID NO 79 (human)
T15 construct: 15-mer of the human mortalin 348-450 array
T15 peptide: EVILVGGMTRMPKVQ
Method: as §1, §2, §3

SEQ ID NO 81 = target: T16, SEQ ID NO 81 (human)
T16 construct: 15-mer of the human mortalin 348-450 array
T16 peptide: TRMPKVQQTVQDLFG
Method: as §1, §2, §3

Measured: binding result

B1: anti-mortalin monoclonal antibody 52-3 (antibody, V domains shown)
VH: QVQLQQPGAELVKPGASVKLSCKASGYTFTSYWMHWVKQRPGQGLEWIGEINPSNGRTNYNEKFKSKATLTVDKSSSTAYMQLSSLTSEDSAVYYCARSRYYGSCYFDYWGQGTTLTVSS
VL: KIVMTQAAFSNPVTLGTSASISCRSSKSLLYSNGITYLYWYLQKPGQSPQLLIYQMSNLASGVPDRFSSSGSGTDFTLRISRVEAEDVGVYYCAQNLELPWTFGGGTKLEIK
notes: also called 52-3 antibody; non-internalization antibody
no binding (tested: 30 µg/mL): all assays above
